In patent US7727968B2, “Combination therapy for the treatment of acute leukemia and myelodysplastic syndrome” (priority 2002, dated 2010):
Structures can show the parent of a compound that is named as a salt.

How the values were obtained:
[1] = system: adult acute nonlymphocytic leukemia; details: used as a single agent; cited from earlier work
AML patients = assay: UK safety study combining gemtuzumab ozogamicin with intensive chemotherapy before the MRC AML15 trial (Example 2); type: in vivo, human
Procedure: The feasibility of combining gemtuzumab ozogamicin with intensive chemotherapy for induction and/or consolidation was evaluated in 67 patients in a safety study in the United Kingdom prior to the start of the Medical Research […] AML15 trial. The aim was to combine gemtuzumab ozogamicin with chemotherapy planned in the trial, (DAT; Daunorubicin, AraC, Thioguanine, or DA; Daunorubicin AraC; or FLAG-IDA; Fludarabine, AraC, G-CSF, Idarubicin) as course 1. Course 1 was given using gemtuzumab ozogamicin in an amount of 3 mg/m^2 on day 1 of chemotherapy in 55 patients. Thirty-three patients received gemtuzumab ozogamicin with DAT. Eight patients received gemtuzumab ozogamicin with DA. Fourteen patients received gemtuzumab ozogamicin with FLAG-Ida. Of the 55 patients treated, 41 […] entered complete remission with course 1 broken down as follows: […] DAT=26/32; (2) DA=7/8; and (3) FLAG-Ida=8/8. Prior experience in a separate trial designated MRC AML12 where 720 patients were treated with H-DAT alone in course 1, 64% of those patients achieved complete remission. In the present study, the median time to ANC recovery (1×10^9/l) was 27 days (range 9-54) and platelets >100×10^9/l was 30 (range 21-48) which is within the mean+ISD of the 720 patients treated with H-DAT alone in the MRC AML12 trial. Non-hemopoietic toxicity was confined to the liver. Overall the maximum toxicity was Grade 1=5 patients, Grade 2=22 patients, Grade 3=13 patients and Grade 4=10 patients. Of the Grade 3 and 4 toxicities, 7 were felt to be definitely associated with gemtuzumab ozogamicin therapy. A possible contributory factor was the inclusion of Thioguanine. Of the 39 recipients where Thioguanine was included in the schedules, 22 developed Grade 3 or 4 liver toxicity compared with 1 for 16 recipients of non-Thioguanine schedules. […]
The overall survival of all patients receiving gemtuzumab ozogamicin in a dose of 3 mg/m^2 with course 1 at 6 months is 73% and at 12 months is 68%. For the patient receiving non-Thioguanine induction with 3 mg/m^2 of gemtuzumab ozogamicin, the 6 month survival is 91%.

patients with AML = details: cited from earlier work
[2] = system: AML patients <60 years of age; details: cited from earlier work
[3] = system: patients with poor prognosis AML; details: refractory AML; single dose GO 9 mg/m^2 three days prior to first pulse of chemotherapy; cited from earlier work
[4] = system: patients with relapsed, refractory, or de novo AML; assay: Phase 1/2 study combining gemtuzumab ozogamicin with cytarabine and daunorubicin (Example 1); details: in the triple combination
Procedure: The maximum tolerated dose was determined to be cytarabine 100 mg/m^2/day by continuous infusion on days 1 through 7, daunorubicin 45 mg/m^2 by intravenous bolus on days 1 through 3, and gemtuzumab ozogamicin 6 mg/m^2 by 2-hour infusion on day 4.
A detailed safety and efficacy evaluation was performed on the first 19 patients treated with this combination induction regimen and subsequently followed for at least 28 days. There were sixteen men and three women enrolled with a median age of 46 years (range, 20 to 60). One, ten, and three patients were categorized in favorable-, intermediate- and poor-risk cytogenetic groups, respectively. Cytogenetic analysis was not available for five patients.

[5] = GO 3 mg/m^2 with course 1 chemotherapy
[6] = all patients receiving GO 3 mg/m^2 with course 1

In the case of `COc1cccc2c1C(=O)c1c(O)c3c(c(O)c1C2=O)C[C@@](O)(C(C)=O)C[C@@H]3O[C@H]1C[C@H](N)[C@H](O)[C@H](C)O1` [daunorubicin hydrochloride, (1 S,3 S)-3-Acetyl-1,2,3,4,6,11-hexahydro-3,5,12-trihydroxy-10-methoxy-6,11-dioxo-1-naphthacenyl 3-amino-2,3,6-trideoxy-(alpha)-L-lyxo-hexopyranoside hydrochloride], the complete remission rates [1] is listed as 40 to 50%.
For “gemtuzumab ozogamicin: recombinant humanized IgG4, kappa anti-CD33 antibody conjugated with N-acetyl-gamma calicheamicin via a bifunctional linker”, the feasibility (AML patients; GO 3 mg/m^2 in course 1 and GO 3 mg/m^2 in course 3, twelve patients) was “appears to be feasible”, the “complete remission with course 1” value (AML patients; GO 3 mg/m^2 on day 1 of chemotherapy (DAT, DA or FLAG-Ida), 41 of 55 patients treated) was 85% and the “Grade 3 and 4 toxicities felt to be definitely associated with gemtuzumab ozogamicin therapy” value (AML patients; [5]) was 7. The “maximum liver toxicity Grade 1” value (AML patients; [5]) was 5 patients, the “maximum liver toxicity Grade 2” value (AML patients; [5]) was 22 patients and the “maximum liver toxicity Grade 3” value (AML patients; [5]) was 13 patients. The “maximum liver toxicity Grade 4” value (AML patients; [5]) was 10 patients, the “median time to ANC recovery (1×10^9/l)” value (AML patients; GO 3 mg/m^2 with course 1 chemotherapy, range 9-54) was 27 days and the “median time to platelets >100×10^9/l” value (AML patients; GO 3 mg/m^2 with course 1 chemotherapy, range 21-48) was 30 days. For the same compound, the “recipients developing Grade 3 or 4 liver toxicity” value (AML patients; Thioguanine included in the schedules, 39 recipients) was 22, the “overall survival at 6 months” value (AML patients; [6]) was 73% and the “overall survival at 12 months” value (AML patients; [6]) was 68%. For the same compound, the 6 month survival (AML patients; non-Thioguanine induction with GO 3 mg/m^2) was 91%, the “recipients developing Grade 3 or 4 liver toxicity” value (AML patients; non-Thioguanine schedules, 16 recipients) was 1 and the “increased risk of developing significant hepatotoxicity” value (patients with AML; patients who did not undergo stem cell transplantation) was ≤ 10%. For the same compound, the response rate (patients with AML; patients with relapsed AML) was < 40%, the liver toxicity ([2]; GO 6 mg/m^2 dose with H-DAT or S-DAT) was “increased liver toxicity” and the “toxicity in patients receiving GO in courses 1 and 2” value ([2]; with H-DAT or S-DAT induction, one patient died) was “delayed hematological recovery and VOD”. The “patients entering complete remission” value [3] was “two of four” and the maximum tolerated dose ([4]; 2-hour infusion on day 4) was 6 mg/m^2.
In the case of `COc1cccc2c1C(=O)c1c(O)c3c(c(O)c1C2=O)C[C@@](O)(C(C)=O)C[C@@H]3O[C@H]1C[C@H](N)[C@H](O)[C@H](C)O1` [daunorubicin, (8S-cis)-8-acetyl-10-[(3-amino-2,3,6-trideoxy-(alpha)-L-lyxo-hexopyranosyl)oxy]-7,8,9,10-tetrahydro-6,8,11-trihydroxy-1-methoxy-5,12-naphthacenedione hydrochloride], the maximum tolerated dose ([4]; intravenous bolus days 1 through 3) was 45 mg/m^2.
Compound `Nc1ccn([C@@H]2O[C@H](CO)[C@@H](O)[C@@H]2O)c(=O)n1` [cytarabine, 4-amino-1-(beta)-D-arabinofuranosyl-2(1H)-pyrimidinone] has a maximum tolerated dose ([4]; continuous infusion days 1 through 7) of 100 mg/m^2/day.
